Source: US20140087995A1 (published 2014)
Numbered stars: 1 amine (or outer) side, 2 acyl side, 3 side chain; on linkers, the order of the positions; unused ones are H or OH. Bridge positions count the residues as written; N and C are the ends. Side chains are listed from the residue outwards. Ends that are not written are not given here. * marks the point of attachment. C20 diacid = O=C(O)CCCCCCCCCCCCCCCCCCC(=O)*; γGlu = O=C(O)[C@H](CCC(=O)[*:2])N[*:1]; AEEA = NCCOCCOCC(=O)O

B1: N^ε1-[(4S)-4-carboxy-4-[[(4S)-4-carboxy-4-(19-carboxynonadecanoylamino)butanoyl]amino]butanoyl]-[Glu14,Arg17,Pro21,Pro27,His34]-h-amylin (peptide)
peptide: K([γGlu-γGlu-C20 diacid])CNTATCATQRLAEFLRHSSPNFGAIPSSTNVGHNTY-NH2
modifications: disulfide 2-7; N-terminus assumed
SMILES: CC[C@H](C)[C@H](NC(=O)[C@H](C)NC(=O)CNC(=O)[C@H](Cc1ccccc1)NC(=O)[C@H](CC(N)=O)NC(=O)[C@@H]1CCCN1C(=O)[C@H](CO)NC(=O)[C@H](CO)NC(=O)[C@H](Cc1c[nH]cn1)NC(=O)[C@H](CCCNC(=N)N)NC(=O)[C@H](CC(C)C)NC(=O)[C@H](Cc1ccccc1)NC(=O)[C@H](CCC(=O)O)NC(=O)[C@H](C)NC(=O)[C@H](CC(C)C)NC(=O)[C@H](CCCNC(=N)N)NC(=O)[C@H](CCC(N)=O)NC(=O)[C@@H](NC(=O)[C@H](C)NC(=O)[C@@H]1CSSC[C@H](NC(=O)[C@@H](N)CCCCNC(=O)CC[C@H](NC(=O)CC[C@H](NC(=O)CCCCCCCCCCCCCCCCCCC(=O)O)C(=O)O)C(=O)O)C(=O)N[C@@H](CC(N)=O)C(=O)N[C@@H]([C@@H](C)O)C(=O)N[C@@H](C)C(=O)N[C@@H]([C@@H](C)O)C(=O)N1)[C@@H](C)O)C(=O)N1CCC[C@H]1C(=O)N[C@@H](CO)C(=O)N[C@@H](CO)C(=O)N[C@H](C(=O)N[C@@H](CC(N)=O)C(=O)N[C@H](C(=O)NCC(=O)N[C@@H](Cc1c[nH]cn1)C(=O)N[C@@H](CC(N)=O)C(=O)N[C@H](C(=O)N[C@@H](Cc1ccc(O)cc1)C(N)=O)[C@@H](C)O)C(C)C)[C@@H](C)O
notes: Synthetic acylated analogue of human amylin; also called compound 87
B2: N^ε1N^ε1-[(4S)-4-carboxy-4-(19-carboxynonadecanoylamino)butanoyl]-[His14,Arg17,Pro21,Pro27,Pro34]-h-amylin (peptide)
peptide: K([γGlu-C20 diacid])CNTATCATQRLAHFLRHSSPNFGAIPSSTNVGPNTY-NH2
modifications: disulfide 2-7; N-terminus assumed
SMILES: CC[C@H](C)[C@H](NC(=O)[C@H](C)NC(=O)CNC(=O)[C@H](Cc1ccccc1)NC(=O)[C@H](CC(N)=O)NC(=O)[C@@H]1CCCN1C(=O)[C@H](CO)NC(=O)[C@H](CO)NC(=O)[C@H](Cc1c[nH]cn1)NC(=O)[C@H](CCCNC(=N)N)NC(=O)[C@H](CC(C)C)NC(=O)[C@H](Cc1ccccc1)NC(=O)[C@H](Cc1c[nH]cn1)NC(=O)[C@H](C)NC(=O)[C@H](CC(C)C)NC(=O)[C@H](CCCNC(=N)N)NC(=O)[C@H](CCC(N)=O)NC(=O)[C@@H](NC(=O)[C@H](C)NC(=O)[C@@H]1CSSC[C@H](NC(=O)[C@@H](N)CCCCNC(=O)CC[C@H](NC(=O)CCCCCCCCCCCCCCCCCCC(=O)O)C(=O)O)C(=O)N[C@@H](CC(N)=O)C(=O)N[C@@H]([C@@H](C)O)C(=O)N[C@@H](C)C(=O)N[C@@H]([C@@H](C)O)C(=O)N1)[C@@H](C)O)C(=O)N1CCC[C@H]1C(=O)N[C@@H](CO)C(=O)N[C@@H](CO)C(=O)N[C@H](C(=O)N[C@@H](CC(N)=O)C(=O)N[C@H](C(=O)NCC(=O)N1CCC[C@H]1C(=O)N[C@@H](CC(N)=O)C(=O)N[C@H](C(=O)N[C@@H](Cc1ccc(O)cc1)C(N)=O)[C@@H](C)O)C(C)C)[C@@H](C)O
notes: Synthetic acylated analogue of human amylin; also called compound 67
B3: N^ε1-[2-[2-[2-[[2-[2-[2-[[(4S)-4-carboxy-4-(19-carboxynonadecanoylamino)butanoyl]amino]ethoxy]ethoxy]acetyl]amino]ethoxy]ethoxy]acetyl]-[Arg17,Pro21,Pro27,Arg34 … (peptide)
peptide: K([AEEA-AEEA-γGlu-C20 diacid])CNTATCATQRLANFLRHSSPNFGAIPSSTNVGRNTY-NH2
modifications: disulfide 2-7; N-terminus assumed
SMILES: CC[C@H](C)[C@H](NC(=O)[C@H](C)NC(=O)CNC(=O)[C@H](Cc1ccccc1)NC(=O)[C@H](CC(N)=O)NC(=O)[C@@H]1CCCN1C(=O)[C@H](CO)NC(=O)[C@H](CO)NC(=O)[C@H](Cc1c[nH]cn1)NC(=O)[C@H](CCCNC(=N)N)NC(=O)[C@H](CC(C)C)NC(=O)[C@H](Cc1ccccc1)NC(=O)[C@H](CC(N)=O)NC(=O)[C@H](C)NC(=O)[C@H](CC(C)C)NC(=O)[C@H](CCCNC(=N)N)NC(=O)[C@H](CCC(N)=O)NC(=O)[C@@H](NC(=O)[C@H](C)NC(=O)[C@@H]1CSSC[C@H](NC(=O)[C@@H](N)CCCCNC(=O)COCCOCCNC(=O)COCCOCCNC(=O)CC[C@H](NC(=O)CCCCCCCCCCCCCCCCCCC(=O)O)C(=O)O)C(=O)N[C@@H](CC(N)=O)C(=O)N[C@@H]([C@@H](C)O)C(=O)N[C@@H](C)C(=O)N[C@@H]([C@@H](C)O)C(=O)N1)[C@@H](C)O)C(=O)N1CCC[C@H]1C(=O)N[C@@H](CO)C(=O)N[C@@H](CO)C(=O)N[C@H](C(=O)N[C@@H](CC(N)=O)C(=O)N[C@H](C(=O)NCC(=O)N[C@@H](CCCNC(=N)N)C(=O)N[C@@H](CC(N)=O)C(=O)N[C@H](C(=O)N[C@@H](Cc1ccc(O)cc1)C(N)=O)[C@@H](C)O)C(C)C)[C@@H](C)O
notes: also called compound 95
B4: N^ε1-[(4S)-4-carboxy-4-(19-carboxynonadecanoylamino)butanoyl]-[Arg14,Arg17,Pro21,Pro27]-h-amylin (peptide)
peptide: K([γGlu-C20 diacid])CNTATCATQRLARFLRHSSPNFGAIPSSTNVGSNTY-NH2
modifications: disulfide 2-7; N-terminus assumed
SMILES: CC[C@H](C)[C@H](NC(=O)[C@H](C)NC(=O)CNC(=O)[C@H](Cc1ccccc1)NC(=O)[C@H](CC(N)=O)NC(=O)[C@@H]1CCCN1C(=O)[C@H](CO)NC(=O)[C@H](CO)NC(=O)[C@H](Cc1c[nH]cn1)NC(=O)[C@H](CCCNC(=N)N)NC(=O)[C@H](CC(C)C)NC(=O)[C@H](Cc1ccccc1)NC(=O)[C@H](CCCNC(=N)N)NC(=O)[C@H](C)NC(=O)[C@H](CC(C)C)NC(=O)[C@H](CCCNC(=N)N)NC(=O)[C@H](CCC(N)=O)NC(=O)[C@@H](NC(=O)[C@H](C)NC(=O)[C@@H]1CSSC[C@H](NC(=O)[C@@H](N)CCCCNC(=O)CC[C@H](NC(=O)CCCCCCCCCCCCCCCCCCC(=O)O)C(=O)O)C(=O)N[C@@H](CC(N)=O)C(=O)N[C@@H]([C@@H](C)O)C(=O)N[C@@H](C)C(=O)N[C@@H]([C@@H](C)O)C(=O)N1)[C@@H](C)O)C(=O)N1CCC[C@H]1C(=O)N[C@@H](CO)C(=O)N[C@@H](CO)C(=O)N[C@H](C(=O)N[C@@H](CC(N)=O)C(=O)N[C@H](C(=O)NCC(=O)N[C@@H](CO)C(=O)N[C@@H](CC(N)=O)C(=O)N[C@H](C(=O)N[C@@H](Cc1ccc(O)cc1)C(N)=O)[C@@H](C)O)C(C)C)[C@@H](C)O
notes: also called compound 83

How the values were obtained:
[1] = target: T1, human calcitonin receptor (human, UniProt P30988 25-474); assay: cell-based or functional assay
T1 sequence (looked up): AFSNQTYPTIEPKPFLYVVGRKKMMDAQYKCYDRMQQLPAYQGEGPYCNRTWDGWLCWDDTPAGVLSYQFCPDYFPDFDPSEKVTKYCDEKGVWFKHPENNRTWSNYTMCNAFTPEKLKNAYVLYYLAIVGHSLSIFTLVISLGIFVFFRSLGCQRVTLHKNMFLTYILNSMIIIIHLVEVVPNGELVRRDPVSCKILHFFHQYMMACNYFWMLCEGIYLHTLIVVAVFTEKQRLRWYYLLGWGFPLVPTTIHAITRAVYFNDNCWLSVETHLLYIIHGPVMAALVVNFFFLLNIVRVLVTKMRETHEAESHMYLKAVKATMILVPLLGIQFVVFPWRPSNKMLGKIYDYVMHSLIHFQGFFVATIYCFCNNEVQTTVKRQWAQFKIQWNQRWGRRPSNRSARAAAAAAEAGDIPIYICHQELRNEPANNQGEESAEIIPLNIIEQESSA

[2] = target: T2, human calcitonin receptor (human, UniProt P30988 25-474); assay: ratio of hCTR IC50 to hAmylin-R IC50 (reference: human amylin receptor)
T2 construct: whole, on cells; Used as cell membranes; also called hCTR; hCT
T2 sequence (looked up): T1 sequence (looked up)
In short: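 Scintillation proximity competition binding on cell membranes at 35 ng/μL with SPA beads, in 50 mM Hepes pH 7.4, 1 mM CaCl2, 5 mM MgCl₂, 0.1% OA, 0.02% Tween20. Incubated 120 min at 25° C with shaking. IC₅₀ from one-site competition fit.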

[3] = target: T3, human amylin receptor (amylin 3(a) receptor: human calcitonin receptor with RAMP-3) (human, UniProt P30988 25-474; O60896 24-148); assay: SPA competition on BHK cell membranes, 125I-rat amylin as radioligand (Assay V)
T3 construct: whole, on cells; Used as cell membranes of the Amylin 3(a)/CRE-luc BHK cells; the species of RAMP-3 is only implied by the name human amylin receptor; also called hAmylin-R; hAmylinR
T3 sequence (looked up) 1: T1 sequence (looked up)
T3 sequence (looked up) 2: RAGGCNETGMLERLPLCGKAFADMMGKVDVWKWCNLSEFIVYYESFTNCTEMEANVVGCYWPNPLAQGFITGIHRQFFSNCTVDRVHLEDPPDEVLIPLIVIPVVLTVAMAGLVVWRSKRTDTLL
Experimental: The binding assay was performed using scintillation proximity assay (SPA) beads (RPNQ0001) from PerkinElmer and cell membranes from the Amylin 3(a)/CRE-luc cells (as described in Assay (II)) were used. Membranes were prepared in the following way; the cells were rinsed with PBS and incubated with Versene for approximately 5 min before harvesting. The cells were flushed with PBS and the cell-suspension was centrifuged for 5 min at 1000 rpm. Cells were homogenized (ultrathurrax) in a buffer containing 20 mM Na-HEPES and 10 mM EDTA (pH 7.4) and centrifuged at 20.000 rpm for 15 min. The resulting pellet was resuspended, homogenized and centrifuged (20.000 rpm, 15 min) in a buffer containing 20 mM Na-HEPES and 0.1 mM EDTA (pH 7.4, buffer 2). The resulting pellet was resuspended in buffer 2 and protein concentration was measured (BCA protein Assay, Pierce). The homogenate was kept cold during the whole procedure. The membranes were kept at −80° C. until use. The assay was performed in a 384 well Optiplate (PerkinElmer) in a total volume of 40 ul. Membranes were mixed with SPA beads. Final concentration of membranes 35 ng/μL final and SPA beads was 0.05 mg/well. Test-compounds were dissolved in DMSO and further diluted in assay buffer (50 mM Hepes, pH 7.4, 1 mM CaCl2, 5 mM MgCl₂, 0.1% OA and 0.02% Tween20). […] The final mixture was incubated with shaking at 400 rpm for 120 min at 25° C. prior to centrifugation (1500 rpm, 10 min). Samples were analyzed on TopCounter™ (Packard). The IC₅₀ was calculated using (one site binding competition analysis) GraphPad Prism5 as a measure of receptor affinity.

[4] = target: T2, human calcitonin receptor; assay: SPA competition on BHK cell membranes, 125I-calcitonin as radioligand (Assay VII)
In short: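 BHK hCTR membranes 35 ng/μL + SPA beads 0.05 mg/well; buffer 50 mM Hepes pH 7.4, 1 mM CaCl2, 5 mM MgCl₂, 0.1% OA, 0.02% Tween20. 120 min, 25° C., shaking. Scintillation count; IC50 by one-site binding competition.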

Binder	Ratio hCT/hAmylin funct. [1]	hCTR funct. EC50 (pM) [1] [pM]	Ratio hCT/hAmylin binding [2]	IC50 [3] [nM]	IC50 [4] [nM]
B1	3.8	1100			
B2	5.2	354			
B3			63.4	0.967	61.3
B4			146	0.939	137
